# Substitutions are numbered along the chain they refer to. Names may count otherwise.
# T1: Fhm, hTL1A(Q167R), soluble, CHO-expressed, residues 72-251 of SEQ ID NO:246 (human, UniProt O95150 72-251)
# T1 chain: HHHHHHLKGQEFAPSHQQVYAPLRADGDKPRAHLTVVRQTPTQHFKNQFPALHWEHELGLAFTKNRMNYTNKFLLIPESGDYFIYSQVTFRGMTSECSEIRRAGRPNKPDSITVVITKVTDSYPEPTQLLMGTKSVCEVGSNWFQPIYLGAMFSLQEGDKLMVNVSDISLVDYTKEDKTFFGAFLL
# T2: rat TL1A, soluble, CHO-expressed, residues 76-252 of SEQ ID NO:258 with N-terminal His6-tag (rat, UniProt Q8K3Y7 76-252)
# T2 sequence: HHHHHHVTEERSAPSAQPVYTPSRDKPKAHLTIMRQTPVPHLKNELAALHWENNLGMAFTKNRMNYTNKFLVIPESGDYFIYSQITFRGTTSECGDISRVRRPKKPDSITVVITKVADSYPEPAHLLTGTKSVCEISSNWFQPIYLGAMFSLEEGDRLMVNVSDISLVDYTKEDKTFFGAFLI
# T3: human TL1A, soluble, CHO-expressed, residues 72-251 of SEQ ID NO:244 with N-terminal His6-tag (human, UniProt O95150 72-251)
# T3 sequence: T1 chain with R102Q
# B1: H4H1719P (antibody, human IgG4 S228P, V domains shown)
# VH: EVQLVESGGGLVQPGRSLRLSCVASGFTFQDYAMHWVRQAPGKGLEWVSGINWISDDMGYADSVMGRFTISRDNAKNSLYLQMDSLRAEDTALYYCAKDKGLRFLDYVMDVWGQGTTVTVSA
# VL: DIVMTQSPLSLPVTPGEPASISCRSTQSLLHRNGHNYLHWYLHKPGQSPQLLIHLGSNRASGVPDRFSGSGSGTDFTLKISRVEAEDVGVYYCMQALQTPYTFGQGTKLEIK
# B2: H4H1738P (antibody, human IgG4 S228P, V domains shown)
# VH: EVQLVESGGALVKPGGSLRLSCAVSGFTFINDWMNWVRQAPGKGLEWVGRIKSTTDGGTTDDAAPVKGRFTISRDDSKNTLYLQMNSLKTEDTAVYYCTRDRNRQRNYFYDGMDVWGQGTTVTVSA
# VL: B1 VL with L9V, T26S, S28R, R32N, H35N, H39D, H43Q, H54Y, I80V
# B3: H4H1818N (antibody, human IgG4 S228P, V domains shown)
# VH: RLQLVESGGGLVKPGGSLKLSCAASGFTISDYYMSWIRQAPGKGLEWVSYIGGSGSTIYYADSVKGRFTISRDNAKNSLYLQMNSLRAEDTAVYYCAREDADSYYYYGMDVWGQGTTVTVSS
# VL: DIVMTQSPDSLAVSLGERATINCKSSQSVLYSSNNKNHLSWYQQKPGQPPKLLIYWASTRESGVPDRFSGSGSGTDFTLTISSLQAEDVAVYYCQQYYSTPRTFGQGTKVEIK
# notes: human IgG4(S108P) form of H2M1818N
# B4: H4H1750P (antibody, human IgG4 S228P, V domains shown)
# VH: QVQLVESGGGVVQPGRSLRLSCVASGFTFSNYGMHWVRQAPGKGLEWVAVISYDGNNDLYSDSVKGRFTISRDNAKNALSLQMTSLRAEDTAVYYCARDSTMTPYYYHGIDVWGQGTTVTVSA
# VL: DIQMTQSPSSLSASVGDRVTITCRASQDIRNDLGWYQQKPGKAPKRLIYAASSLQSGVPSRFSGSGSGTDFTLTISSLQPEDFATYYCLQHNSYPPTFGQGTKVEIK
# B5: H4H1704N (antibody, human IgG4 S228P, V domains shown)
# VH: EVQLVESGGGLVQPGGSLRLSCAVSGFTFSSYWMSWVRQAPGKGLEWVANIKEDGSEKNYVDSVKGRFTLSSDNAKNSLYLQMNSLRAEDTAVYYCAREDYDSYYKYGMDVWGQGTAVIVSS
# VL: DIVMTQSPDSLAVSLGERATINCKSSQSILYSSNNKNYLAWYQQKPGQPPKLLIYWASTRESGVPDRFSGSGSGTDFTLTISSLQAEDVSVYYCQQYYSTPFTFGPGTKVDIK
# notes: human IgG4(S108P) form of H2M1704N
# B6: H4H1804N (antibody, human IgG4 S228P, V domains shown)
# VH: QVQLHQWGAGLLKPSETLSLTCAVSGVSFSDYHWAWIRQSPGKGLEWIGDINHRGRTNYNPSLKSRVTISLDTSGNPFSLKLTSVTAADTAVYYCARDFPNWVFDSWGQGILVTVSS
# VL: EIVLSQSPGTLSLSPGERATLSCRASQSVSSSFLAWYQQYPGQAPRLLIYGASRRATGIPDRFRGSGSGTDFTLTISRLEPEDFAVYYCQQYGSSPLTFGGGTKVENK
# notes: human IgG4(S108P) form of H2M1804N
# B7: H4H1725P (antibody, human IgG4 S228P, V domains shown)
# VH: QVQLVQSGAEVKKPGASVKVSCKASGYTFTGYYMHWVRQAPGQGLEWMGWIKPKSGGTNYVQKFQGRVTMTRDTSINTAYMELNNLKSDDTAVYYCATGGSQDASDFWGQGTMVTVSS
# VL: DIQMTQSPSSVSASVGGRVTITCRASQDISIWLAWYQQKPGKAPNLLIYAASSLQSGVPSRFSGSGSGTDFTLTISSLQPEDFATYYCQQADSFPLTFGGGTKVEIK
# B8: H4H1805N (antibody, human IgG4 S228P, V domains shown)
# VH: QVQLQQWGAGLLKPSETLSLTCAVYGGSFTGFYWSWIRQPPGKGLEWIGEINHRGNTNYNPSLKSRVTMSVDTSKNQFSLNMISVTAADTAMYFCASPFYDFWSGSDYWGQGTLVTVSS
# VL: DIMLTQTPLTSPVTLGQPASISCKSSQSLVHSDGNTYLSWLQQRPGQPPRLLFYKISNRFSGVPDRFSGSGAGTDFTLKISRVEAEDVGVYYCMQATQFPLTFGGGTKVEIK
# notes: human IgG4(S108P) form of H2M1805N
# Biological target: T1, Fhm, hTL1A(Q167R), soluble, …
# Experiment: cell-based or functional assay
row,"IC50, NFkB-luciferase reporter [nM]",Binder
1,0.08,B1
2,0.33,B2
3,0.62,B3
4,3.1,B4
5,0.17,B5
6,0.1,B6
7,0.07,B7
8,186,B8

# Biological target: T2, rat TL1A, soluble, CHO-expressed, …
# Experiment: cell-based or functional assay
row,"IC50, NFkB-luciferase reporter [nM]",Binder
1,1.1,B3
2,0.4,B5
3,3.64,B6
4,63.4,B7

# Biological target: T3, human TL1A, soluble, CHO-expressed, …
# Experiment: cell-based or functional assay
"IC50, IFN-g release, average of donors [nM]","IC50, IFN-g release, donor D5 [nM]","IC50, IFN-g release, donor D6 [nM]","IC50, IFN-g release, donor D7 [nM]","IC50, IFN-g release, donor D8 [nM]","IC50, IFN-g release, donor D9 [nM]","IC50, IFN-g release, donor D10 [nM]","IC50, IFN-g release, donor D11 [nM]","IC50, IFN-g release, donor D12 [nM]","IC50, IFN-g release, donor D1 [nM]",Binder
12,17,11,12,19,7.5,10,11,8,,B5
8.8,6.7,8.6,12,11,8.1,12,7.6,7.5,6.8,B6
6.4,7,5.4,13,12,6.4,4.1,6.1,6.4,3.4,B7
4,2.9,3.4,8,5.1,5.9,2.8,3,3.1,2.4,B8

# Same assay, conditions: not given
"IC50, IFN-g release, donor D2 [nM]","IC50, IFN-g release, donor D3 [nM]","IC50, IFN-g release, donor D4 [nM]",Binder
8.6,8.6,7.7,B6
3.2,5.4,4.7,B7
5.5,3.4,2.5,B8

# Biological target: T1, Fhm, hTL1A(Q167R), soluble, …
# Experiment: ELISA, blocks FHM (10 pM) binding hDcR3-Fc
# Experimental: (§1) The ability of antibodies to block human TL1A binding to its cognate receptors, the DR3 and DcR3 receptors, was measured using a competition sandwich ELISA. In addition, blocking of a human TL1A variant FHM (human TL1A Q167R) and the cynomolgus monkey (Macaca fascicularis) TL1A (MfTL1A) protein binding to the human DR3 or DcR3 receptors was measured in the same manner. Constant amounts of biotinylated human TL1A or FHM (both expressed with a 6-His tag in CHO cells) or biotinylated MfTL1A (expressed in CHO cells) were separately titrated with varying amounts of antibodies. The antibody-protein complexes were incubated in solution (1 hr, 25° C.) and then transferred to microtiter plates coated with human DR3 (hDR3) or human DcR3 (hDcR3) expressed as human IgG1 Fc fusion proteins. After one hour at 25° C. the wells were washed, and bound human or monkey TL1A was detected with streptavidin conjugated with horseradish peroxidase (HRP). Wells were developed with a TMB solution to produce a colorimetric reaction and quenched with aqueous sulfuric acid before reading absorbance at 450 nm on a Perkin-Elmer Victor X5 plate reader. A sigmoidal dose-response curve was fit to the data using the Prism™ data analysis package. […] Both fully human anti-hTL1A mAbs and comparator antibodies, i.e., control mAb1 (an anti-hTL1A antibody with heavy and light chain variable domains having the amino acid sequences corresponding to SEQ ID NOS:21 and 27, respectively, of US 2009/0280116) and control mAb3 (an anti-hTL1A antibody with heavy and light chain variable domains having the amino acid sequences corresponding to SEQ ID NOS:57 and 48, respectively, of US 2009/0280116), were included in the study. NB: No binding under the conditions tested; NT: Not tested. Concentrations of biotinylated soluble ligands: (1) 150 pM; (2) 500 pM; (3) 10 pM; and (4) 50 pM.
row,IC50 [nM],Binder
1,0.045,B1
2,0.15,B2
3,0.626,B4
4,0.17,B5
5,0.085,B7

# Biological target: T1, Fhm, hTL1A(Q167R), soluble, …
# Experiment: ELISA, blocks FHM (150 pM) binding hDR3-Fc
# Experimental: as §1
row,IC50 [nM],Binder
1,0.023,B1
2,0.152,B2
3,0.202,B3
4,0.589,B4
5,0.044,B5
6,0.018,B7

# — patent US20140120109A1 (Regeneron, published 2014)
